Reference: US20250388669A1 (published 2025)

T1: B7H3 (human, UniProt Q5ZPR3 29-466, limits assumed)
T1 sequence (looked up): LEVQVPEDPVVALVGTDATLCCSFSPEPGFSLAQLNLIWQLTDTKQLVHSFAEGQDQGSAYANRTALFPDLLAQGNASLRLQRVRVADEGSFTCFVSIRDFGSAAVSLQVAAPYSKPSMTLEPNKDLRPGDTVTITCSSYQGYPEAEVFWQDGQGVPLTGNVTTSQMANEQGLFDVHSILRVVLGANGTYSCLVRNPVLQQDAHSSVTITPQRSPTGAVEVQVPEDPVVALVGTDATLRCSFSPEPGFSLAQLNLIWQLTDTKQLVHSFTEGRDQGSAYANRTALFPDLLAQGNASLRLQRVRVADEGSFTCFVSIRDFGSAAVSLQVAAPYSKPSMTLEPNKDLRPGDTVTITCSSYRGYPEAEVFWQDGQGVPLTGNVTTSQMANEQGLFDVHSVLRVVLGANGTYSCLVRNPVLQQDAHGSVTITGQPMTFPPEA


Target: T1, B7H3
Test: ELISA or FCM (Example 2)

Row | Binder | binding result
1 | Ly2367 (other, Tri-specific antibody: B7H3 Fabs, central CD3 Fv, terminal CD137 Fv; Flexible linker is G4S) chain 1: QVQLVQSGAEVKKPGASVKVSCKASGYTFTSYVMHWVRQKPGQGLEWIGYINPYNEGTESTDKFKGRATMTSDKSTSTVYMELSSLRSEDTAVYYCASIYYGYEGTYFGVWGQGTLVTVSSASTKGPSVFPLAPSSKSTSGGTAALGCLVKDYFPEPVTVSWNSGALTSGVHTFPAVLQSSGLYSLSSVVTVPSSSLGTQTYICNVNHKPSNTKVDKKVEPKSCGGGGSEVQLVESGGGLVQPGGSLRLSCAASGFTFSTYAMNWVRQAPGKGLEWVGRIRSKYNNYATYYADSVKGRFTISRDDSKNSLYLQMNSLKTEDTAVYYCVRHGNFGNSYVSWFAYWGQGTLVTVSSGGGGSDKTHTCPPCPAPEAAGPSVFLFPPKPKDTLMISRTPEVTCVVVDVSHEDPEVKFNWYVDGVEVHNAKTKPREEQYNSTYRVVSVLTVLHQDWLNGKEYKCKVSNKALPAPIEKTISKAKGQPREPQVYTLPPSREEMTKNQVSLWCLVKGFYPSDIAVEWESNGQPENNYKTTPPVLDSDGSFFLYSKLTVDKSRWQQGNVFSCSVMHEALHNHYTQKSLSLSPGGGGGSGGGGSGGGGSGGGGSQVQLVQSGAEVKKPGASVKVSCKASGYTFAGFEMHWVRQAPGQGLEWMGAIDPKTGGTDYNQKFKDRVTMTRDTSISTAYMELSRLRSDDTAVYYCARDLGYFDVWGQGTLVTVSS chain 2: QVQLVQSGAEVKKPGASVKVSCKASGYTFTSYVMHWVRQKPGQGLEWIGYINPYNEGTESTDKFKGRATMTSDKSTSTVYMELSSLRSEDTAVYYCASIYYGYEGTYFGVWGQGTLVTVSSASTKGPSVFPLAPSSKSTSGGTAALGCLVKDYFPEPVTVSWNSGALTSGVHTFPAVLQSSGLYSLSSVVTVPSSSLGTQTYICNVNHKPSNTKVDKKVEPKSCGGGGSQAVVTQEPSLTVSPGGTVTLTCRSSTGAVTTSNYANWVQQKPGQAPRGLIGGTNKRAPWTPARFSGSLLGGKAALTITGAQAEDEADYYCALWYSNLWVFGGGTKLTVLGGGGSDKTHTCPPCPAPEAAGPSVFLFPPKPKDTLMISRTPEVTCVVVDVSHEDPEVKFNWYVDGVEVHNAKTKPREEQYNSTYRVVSVLTVLHQDWLNGKEYKCKVSNKALPAPIEKTISKAKGQPREPQVYTLPPSREEMTKNQVSLSCAVKGFYPSDIAVEWESNGQPENNYKTTPPVLDSDGSFFLVSKLTVDKSRWQQGNVFSCSVMHEALHNRFTQKSLSLSPGGGGGSGGGGSGGGGSGGGGSDIQMTQSPSSLSASVGDRVTITCRASQDIRSNLNWYQQKPGGAVKLLIYYTSRLHSGVPSRFSGSGSGTDYTLTISSLQPEDFATYFCQQSEKLPRTFGGGTKVEIR light: EIVLTQSPATLSLSPGERATLSCRASSSVSYMHWYQQKPGQAPRPWIYATSNLASGIPARFSGSRSGTDYTLTISSLEPEDFAVYYCQQWSSNTLTFGGGTKVEIKRTVAAPSVFIFPPSDEQLKSGTASVVCLLNNFYPREAKVQWKVDNALQSGNSQESVTEQDSKDSTYSLSSTLTLSKADYEKHKVYACEVTHQGLSSPVTKSFNRGEC | binds
2 | Ly2384 (other, Tri-specific antibody: B7H3 Fabs, central CD3 Fv, terminal CD137 Fv; Flexible linker is G3S) chain 1: QVQLVQSGAEVKKPGASVKVSCKASGYTFTSYVMHWVRQKPGQGLEWIGYINPYNEGTESTDKFKGRATMTSDKSTSTVYMELSSLRSEDTAVYYCASIYYGYEGTYFGVWGQGTLVTVSSASTKGPSVFPLAPSSKSTSGGTAALGCLVKDYFPEPVTVSWNSGALTSGVHTFPAVLQSSGLYSLSSVVTVPSSSLGTQTYICNVNHKPSNTKVDKKVEPKSCGGGSEVQLVESGGGLVQPGGSLRLSCAASGFTFSTYAMNWVRQAPGKGLEWVGRIRSKYNNYATYYADSVKGRFTISRDDSKNSLYLQMNSLKTEDTAVYYCVRHGNFGNSYVSWFAYWGQGTLVTVSSGGGGSDKTHTCPPCPAPEAAGPSVFLFPPKPKDTLMISRTPEVTCVVVDVSHEDPEVKFNWYVDGVEVHNAKTKPREEQYNSTYRVVSVLTVLHQDWLNGKEYKCKVSNKALPAPIEKTISKAKGQPREPQVYTLPPSREEMTKNQVSLWCLVKGFYPSDIAVEWESNGQPENNYKTTPPVLDSDGSFFLYSKLTVDKSRWQQGNVFSCSVMHEALHNHYTQKSLSLSPGGGGGSGGGGSGGGGSGGGGSQVQLVQSGAEVKKPGASVKVSCKASGYTFAGFEMHWVRQAPGQGLEWMGAIDPKTGGTDYNQKFKDRVTMTRDTSISTAYMELSRLRSDDTAVYYCARDLGYFDVWGQGTLVTVSS chain 2: QVQLVQSGAEVKKPGASVKVSCKASGYTFTSYVMHWVRQKPGQGLEWIGYINPYNEGTESTDKFKGRATMTSDKSTSTVYMELSSLRSEDTAVYYCASIYYGYEGTYFGVWGQGTLVTVSSASTKGPSVFPLAPSSKSTSGGTAALGCLVKDYFPEPVTVSWNSGALTSGVHTFPAVLQSSGLYSLSSVVTVPSSSLGTQTYICNVNHKPSNTKVDKKVEPKSCGGGSQAVVTQEPSLTVSPGGTVTLTCRSSTGAVTTSNYANWVQQKPGQAPRGLIGGTNKRAPWTPARFSGSLLGGKAALTITGAQAEDEADYYCALWYSNLWVFGGGTKLTVLGGGGSDKTHTCPPCPAPEAAGPSVFLFPPKPKDTLMISRTPEVTCVVVDVSHEDPEVKFNWYVDGVEVHNAKTKPREEQYNSTYRVVSVLTVLHQDWLNGKEYKCKVSNKALPAPIEKTISKAKGQPREPQVYTLPPSREEMTKNQVSLSCAVKGFYPSDIAVEWESNGQPENNYKTTPPVLDSDGSFFLVSKLTVDKSRWQQGNVFSCSVMHEALHNRFTQKSLSLSPGGGGGSGGGGSGGGGSGGGGSDIQMTQSPSSLSASVGDRVTITCRASQDIRSNLNWYQQKPGGAVKLLIYYTSRLHSGVPSRFSGSGSGTDYTLTISSLQPEDFATYFCQQSEKLPRTFGGGTKVEIR light: EIVLTQSPATLSLSPGERATLSCRASSSVSYMHWYQQKPGQAPRPWIYATSNLASGIPARFSGSRSGTDYTLTISSLEPEDFAVYYCQQWSSNTLTFGGGTKVEIKRTVAAPSVFIFPPSDEQLKSGTASVVCLLNNFYPREAKVQWKVDNALQSGNSQESVTEQDSKDSTYSLSSTLTLSKADYEKHKVYACEVTHQGLSSPVTKSFNRGEC | binds
3 | Ly2368 (other, Tri-specific antibody: B7H3 Fabs, central CD3 Fv, terminal CD137 Fv; It has no flexible linker) chain 1: QVQLVQSGAEVKKPGASVKVSCKASGYTFTSYVMHWVRQKPGQGLEWIGYINPYNEGTESTDKFKGRATMTSDKSTSTVYMELSSLRSEDTAVYYCASIYYGYEGTYFGVWGQGTLVTVSSASTKGPSVFPLAPSSKSTSGGTAALGCLVKDYFPEPVTVSWNSGALTSGVHTFPAVLQSSGLYSLSSVVTVPSSSLGTQTYICNVNHKPSNTKVDKKVEPKSCEVQLVESGGGLVQPGGSLRLSCAASGFTFSTYAMNWVRQAPGKGLEWVGRIRSKYNNYATYYADSVKGRFTISRDDSKNSLYLQMNSLKTEDTAVYYCVRHGNFGNSYVSWFAYWGQGTLVTVSSGGGGSDKTHTCPPCPAPEAAGPSVFLFPPKPKDTLMISRTPEVTCVVVDVSHEDPEVKFNWYVDGVEVHNAKTKPREEQYNSTYRVVSVLTVLHQDWLNGKEYKCKVSNKALPAPIEKTISKAKGQPREPQVYTLPPSREEMTKNQVSLWCLVKGFYPSDIAVEWESNGQPENNYKTTPPVLDSDGSFFLYSKLTVDKSRWQQGNVFSCSVMHEALHNHYTQKSLSLSPGGGGGSGGGGSGGGGSGGGGSQVQLVQSGAEVKKPGASVKVSCKASGYTFAGFEMHWVRQAPGQGLEWMGAIDPKTGGTDYNQKFKDRVTMTRDTSISTAYMELSRLRSDDTAVYYCARDLGYFDVWGQGTLVTVSS chain 2: QVQLVQSGAEVKKPGASVKVSCKASGYTFTSYVMHWVRQKPGQGLEWIGYINPYNEGTESTDKFKGRATMTSDKSTSTVYMELSSLRSEDTAVYYCASIYYGYEGTYFGVWGQGTLVTVSSASTKGPSVFPLAPSSKSTSGGTAALGCLVKDYFPEPVTVSWNSGALTSGVHTFPAVLQSSGLYSLSSVVTVPSSSLGTQTYICNVNHKPSNTKVDKKVEPKSCQAVVTQEPSLTVSPGGTVTLTCRSSTGAVTTSNYANWVQQKPGQAPRGLIGGTNKRAPWTPARFSGSLLGGKAALTITGAQAEDEADYYCALWYSNLWVFGGGTKLTVLGGGGSDKTHTCPPCPAPEAAGPSVFLFPPKPKDTLMISRTPEVTCVVVDVSHEDPEVKFNWYVDGVEVHNAKTKPREEQYNSTYRVVSVLTVLHQDWLNGKEYKCKVSNKALPAPIEKTISKAKGQPREPQVYTLPPSREEMTKNQVSLSCAVKGFYPSDIAVEWESNGQPENNYKTTPPVLDSDGSFFLVSKLTVDKSRWQQGNVFSCSVMHEALHNRFTQKSLSLSPGGGGGSGGGGSGGGGSGGGGSDIQMTQSPSSLSASVGDRVTITCRASQDIRSNLNWYQQKPGGAVKLLIYYTSRLHSGVPSRFSGSGSGTDYTLTISSLQPEDFATYFCQQSEKLPRTFGGGTKVEIR light: EIVLTQSPATLSLSPGERATLSCRASSSVSYMHWYQQKPGQAPRPWIYATSNLASGIPARFSGSRSGTDYTLTISSLEPEDFAVYYCQQWSSNTLTFGGGTKVEIKRTVAAPSVFIFPPSDEQLKSGTASVVCLLNNFYPREAKVQWKVDNALQSGNSQESVTEQDSKDSTYSLSSTLTLSKADYEKHKVYACEVTHQGLSSPVTKSFNRGEC | binds
